According to US20130143299A1 (GENEFRONTIER, published 2013):

What was measured:
[1] = molecular target: T1, Escherichia coli thioredoxin, purchased from Sigma (Escherichia coli, UniProt P0AA25 2-109 = thioredoxin); assay: ELISA, purified clone 500 ng/well on immobilised antigen, anti-FLAG-HRP detection
T1 construct: Immobilised on the plate for ELISA; also called Trx

[2] = molecular target: T2, human Erk2 (extracellular signal-regulated kinase 2), purchased from Sigma (human, UniProt P28482 1-360, limits assumed); assay: Immunoprecipitation on anti-FLAG M2 agarose of recombinant Erk2 added to HEK293T cell lysate; SDS-PAGE (CBB staining) and Western blot with anti-ERK antibody
T2 construct: Biotinylated with EZ-Link NHS-PEO4-Biotin for selection and for SPR (SA sensor chip); immobilised directly on the plate for ELISA; also called recombinant Erk2 protein; Erk2 protein
T2 sequence (P28482 whole entry): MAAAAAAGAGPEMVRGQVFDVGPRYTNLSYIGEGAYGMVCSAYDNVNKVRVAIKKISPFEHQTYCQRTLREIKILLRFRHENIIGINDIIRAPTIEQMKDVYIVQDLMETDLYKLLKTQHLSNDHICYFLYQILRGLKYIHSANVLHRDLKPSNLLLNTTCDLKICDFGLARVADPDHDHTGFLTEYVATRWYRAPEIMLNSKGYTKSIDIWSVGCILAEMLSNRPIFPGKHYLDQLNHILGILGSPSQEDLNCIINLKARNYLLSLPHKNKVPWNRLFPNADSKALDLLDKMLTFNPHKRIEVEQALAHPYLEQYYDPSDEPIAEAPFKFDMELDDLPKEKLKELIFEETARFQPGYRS

[3] = molecular target: T2, human Erk2 (extracellular …); assay: ELISA, purified clone 500 ng/well on immobilised antigen, anti-FLAG-HRP detection
[4] = molecular target: T2, human Erk2 (extracellular …); assay: primary screening ELISA, E. coli extract on immobilised antigen, anti-FLAG-HRP
[5] = molecular target: T2, human Erk2 (extracellular …); assay: SPR (BIACORE 3000), biotinylated Erk2 on SA sensor chip
[6] = molecular target: T3, endogenous Erk1 of HEK293T cells (UniProt P27361 2-379); assay: His-tag (TALON resin) pull-down from transfected HEK293T cells, Western blot with anti-ERK antibody
T3 construct: Endogenous intracellular protein, not a recombinant construct; also called Erk1/2
T3 sequence (P27361 2-379 limits assumed): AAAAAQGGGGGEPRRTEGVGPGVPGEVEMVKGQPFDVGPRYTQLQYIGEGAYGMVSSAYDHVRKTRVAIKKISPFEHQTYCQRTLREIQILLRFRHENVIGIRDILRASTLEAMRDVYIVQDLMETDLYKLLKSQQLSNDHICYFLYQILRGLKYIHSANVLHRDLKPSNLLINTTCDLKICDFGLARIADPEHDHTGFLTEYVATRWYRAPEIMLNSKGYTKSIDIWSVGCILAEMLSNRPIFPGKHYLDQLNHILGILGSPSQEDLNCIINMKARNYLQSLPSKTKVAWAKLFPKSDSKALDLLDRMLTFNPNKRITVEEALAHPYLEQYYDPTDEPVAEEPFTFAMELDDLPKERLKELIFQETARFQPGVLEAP

[7] = molecular target: T4, endogenous Erk2 of HEK293T cells (UniProt P28482 2-360); assay: as above
T4 construct: Endogenous intracellular protein, not a recombinant construct; also called Erk1/2
T4 sequence (P28482 2-360 limits assumed): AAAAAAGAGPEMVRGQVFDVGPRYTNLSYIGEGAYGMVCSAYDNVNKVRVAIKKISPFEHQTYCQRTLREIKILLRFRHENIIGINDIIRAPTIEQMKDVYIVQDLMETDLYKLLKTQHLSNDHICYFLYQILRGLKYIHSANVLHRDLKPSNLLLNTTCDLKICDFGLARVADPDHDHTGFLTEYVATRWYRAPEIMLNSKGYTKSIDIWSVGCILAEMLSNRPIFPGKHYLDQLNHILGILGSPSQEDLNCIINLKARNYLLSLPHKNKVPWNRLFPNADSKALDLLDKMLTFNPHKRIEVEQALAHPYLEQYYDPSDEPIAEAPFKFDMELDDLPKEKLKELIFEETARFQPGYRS

T1 sequence (P0AA25 2-109 limits assumed): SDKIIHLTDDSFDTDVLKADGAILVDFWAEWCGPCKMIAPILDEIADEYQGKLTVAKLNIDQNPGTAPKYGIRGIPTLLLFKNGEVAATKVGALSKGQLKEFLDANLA

B1: Trx-binding clone group A (RNF8-FHA domain-modified protein) (designed binder)
chain: GEPGFFVTGDRAGGRSWCLRRVGMSAGWLLLEDGCEVTVGFVPGVTYQLVSKVLFAEKNANHCVLKQNPEGQWTIMDNKVWNGVWLNRARLEPLRVYSIHQGDYIQLGQVSPLGENAEYEYEVTEEDWETIYPCLSPKNDQMIEKN
notes: also called Trx clone A; not shown: N-terminal fusion partner from vector pET-MalStrep (MBP/Strep) and FLAG tag
Q: With B1 as the binder, how does the “ELISA (S/N)” value [1] read?
A: Its value is 30.5 S/N.

Q: Does B1 bind [2]?
A: Result: no binding

B2: Trx-binding clone group C (RNF8-FHA domain-modified protein) (designed binder)
chain: GEPGFFVTGDRAGGRSWCLRRVGMSAGWLLLEDGCEVTVGFVPGVTYQLVSKVLFAEKNANHCVLKQNPEGQWTIMDNKVWNGVWLNRARLEPLRVYSIHQGDYIQLGGVFRKGENAEYEYEVTEEDWETIYPCLSPKNDQMIEKN
notes: Loop 4 GVFRKG; loops 1-3 as Trx group A; not shown: N-terminal fusion partner from vector pET-MalStrep (MBP/Strep) and FLAG tag
Q: B2 was tested. Which “ELISA (S/N)” value [1] did it give?
A: Its value is 4.4 S/N.

B3: Trx-binding clone group D (RNF8-FHA domain-modified protein) (designed binder)
chain: GEPGFFVTGDRAGGRSWCLRRVGMSAGWLLLEDGCEVTVGFVPGVTYQLVSKVLFAEKNANHCVLKQNPEGQWTIMDNKVWNGVWLNRARLEPLRVYSIHQGDYIQLGRGCLGLENAEYEYEVTEEDWETIYPCLSPKNDQMIEKN
notes: Loop 4 RGCLGL; loops 1-3 as Trx group A; not shown: N-terminal fusion partner from vector pET-MalStrep (MBP/Strep) and FLAG tag
Q: How did the “ELISA (S/N)” value [1] turn out when B3 was run?
A: Its value is 4.7 S/N.

B4: Trx-binding clone group G (RNF8-FHA domain-modified protein) (designed binder)
chain: GEPGFFVTGDRAGGRSWCLRRVGMSAGWLLLEDGCEVTVGFLPGVTYQLVSKPMRREKNMNHCVLKQNPEGQWTIMDNKVRIGVWLNRARLEPLRVYSIHQGDYIQLGQVSPLGENAEYEYEVTEEDWETIYPCLSPKNDQMIEKN
notes: not shown: N-terminal fusion partner from vector pET-MalStrep (MBP/Strep) and FLAG tag
Q: How did the “ELISA (S/N)” value [1] turn out when B4 was run?
A: The value was 22.2 S/N.

B5: Erk2-binding clone group B (RNF8-FHA domain-modified protein) (designed binder)
chain: GEPGFFVTGDRAGGRSWCLRRVGMSAGWLLLEDGCEVTVGFGTGVTYQLVSKYLPSWFTYNHCVLKQNPEGQWTIMDNKSLTGVWLNRARLEPLRVYSIHQGDYIQLGALKQSLENAEYEYEVTEEDWETIYPCLSPKNDQMIEKN
notes: Loop 4 ALKQSL; loops 1-3 as group A; also called Erk2 clone B; not shown: N-terminal fusion partner from vector pET-MalStrep (MBP/Strep) and FLAG tag
Q: For B5, which “ELISA (S/N)” value [3] is on record?
A: Its value is 30 S/N.

B6: Erk2-binding clone group A (RNF8-FHA domain-modified protein) (designed binder)
chain: GEPGFFVTGDRAGGRSWCLRRVGMSAGWLLLEDGCEVTVGFGTGVTYQLVSKYLPSWFTYNHCVLKQNPEGQWTIMDNKSLTGVWLNRARLEPLRVYSIHQGDYIQLGGIWSDLENAEYEYEVTEEDWETIYPCLSPKNDQMIEKN
notes: Expressed from pET-MalStrep in E. coli; also called Erk2 clone A; not shown: N-terminal fusion partner from E. coli vector pET-MalStrep (MBP, purified on MBPTrap)
Q: With B6 as the binder, how does the “ELISA (S/N)” value [3] read?
A: Its value is 30 S/N.

B7: Erk2-binding clone group C (RNF8-FHA domain-modified protein) (designed binder)
chain: GEPGFFVTGDRAGGRSWCLRRVGMSAGWLLLEDGCEVTVGFGTGVTYQLVSKYLPSWFTYNHCVLKQNPEGQWTIMDNKSLTGVWLNRARLEPLRVYSIHQGDYIQLGAMTTSYENAEYEYEVTEEDWETIYPCLSPKNDQMIEKN
notes: Loop 4 AMTTSY; loops 1-3 as group A; also called Erk2 clone C; not shown: N-terminal fusion partner from vector pET-MalStrep (MBP/Strep) and FLAG tag
Q: How did the “ELISA (S/N)” value [3] turn out when B7 was run?
A: Its value is 12 S/N.

B8: Erk2-binding clone group D (RNF8-FHA domain-modified protein) (designed binder)
chain: GEPGFFVTGDRAGGRSWCLRRVGMSAGWLLLEDGCEVTVGFGTGVTYQLVSKYLPSWFTYNHCVLKQNPEGQWTIMDNKSLTGVWLNRARLEPLRVYSIHQGDYIQLGSHKWWVENAEYEYEVTEEDWETIYPCLSPKNDQMIEKN
notes: Loop 4 SHKWWV; loops 1-3 as group A; also called Erk2 clone D; not shown: N-terminal fusion partner from vector pET-MalStrep (MBP/Strep) and FLAG tag
Q: With B8 as the binder, how does the “ELISA (S/N)” value [3] read?
A: Its value is 13.6 S/N.

B9: Erk2-binding clone group E (RNF8-FHA domain-modified protein) (designed binder)
chain: GEPGFFVTGDRAGGRSWCLRRVGMSAGWLLLEDGCEVTVGFGTGVTYQLVSKYLPSWFTYNHCVLKQNPEGQWTIMDNKSLTGVWLNRARLEPLRVYSIHQGDYIQLGETGLEWENAEYEYEVTEEDWETIYPCLSPKNDQMIEKN
notes: Only tested in the primary screening ELISA (E. coli extract); not shown: N-terminal fusion partner from vector pET-MalStrep (MBP/Strep) and FLAG tag
Q: Does B9 bind [4]?
A: Result: binds

B10: Erk2-binding clone group F (RNF8-FHA domain-modified protein) (designed binder)
chain: GEPGFFVTGDRAGGRSWCLRRVGMSAGWLLLEDGCEVTVGFGTGVTYQLVSKYLPSWFTYNHCVLKQNPEGQWTIMDNKSLTGVWLNRARLEPLRVYSIHQGDYIQLGSMRHMLENAEYEYEVTEEDWETIYPCLSPKNDQMIEKN
notes: as for B9
Q: Does B10 bind [4]?
A: Result: binds

B11: Erk2-binding clone group G (RNF8-FHA domain-modified protein) (designed binder)
chain: GEPGFFVTGDRAGGRSWCLRRVGMSAGWLLLEDGCEVTVGFGTGVTYQLVSKYLPSWFTYNHCVLKQNPEGQWTIMDNKSLTGVWLNRARLEPLRVYSIHQGDYIQLGSLPGLAENAEYEYEVTEEDWETIYPCLSPKNDQMIEKN
notes: as for B9
Q: Does B11 bind [4]?
A: Result: binds

B12: Erk2-binding clone group H (RNF8-FHA domain-modified protein) (designed binder)
chain: GEPGFFVTGDRAGGRSWCLRRVGMSAGWLLLEDGCEVTVGFGTGVTYQLVSKYLPSWFTYNHCVLKQNPEGQWTIMDNKSLTGVWLNRARLEPLRVYSIHQGDYIQLGLVAYGAENAEYEYEVTEEDWETIYPCLSPKNDQMIEKN
notes: as for B9
Q: Does B12 bind [4]?
A: Result: binds

B13: Erk2-binding clone group I (RNF8-FHA domain-modified protein) (designed binder)
chain: GEPGFFVTGDRAGGRSWCLRRVGMSAGWLLLEDGCEVTVGFGTGVTYQLVSKYLPSWFTYNHCVLKQNPEGQWTIMDNKSLTGVWLNRARLEPLRVYSIHQGDYIQLGSLAANLENAEYEYEVTEEDWETIYPCLSPKNDQMIEKN
notes: as for B9
Q: Does B13 bind [4]?
A: Result: binds

B14: Erk2-binding clone group K (RNF8-FHA domain-modified protein) (designed binder)
chain: GEPGFFVTGDRAGGRSWCLRRVGMSAGWLLLEDGCEVTVGFGTGVTYQLVSKYLPSWFTYNHCVLKQNPEGQWTIMDNKSLTGVWLNRARLEPLRVYSIHQGDYIQLGEDRFGLENAEYEYEVTEEDWETIYPCLSPKNDQMIEKN
notes: as for B9
Q: Does B14 bind [4]?
A: Result: binds

B15: Erk2-binding clone group L (RNF8-FHA domain-modified protein) (designed binder)
chain: GEPGFFVTGDRAGGRSWCLRRVGMSAGWLLLEDGCEVTVGFGTGVTYQLVSKYLPSWFTYNHCVLKQNPEGQWTIMDNKSLTGVWLNRARLEPLRVYSIHQGDYIQLGAMFSDVENAEYEYEVTEEDWETIYPCLSPKNDQMIEKN
notes: as for B9
Q: Does B15 bind [4]?
A: Result: binds

B16: Erk2-binding clone group M (RNF8-FHA domain-modified protein) (designed binder)
chain: GEPGFFVTGDRAGGRSWCLRRVGMSAGWLLLEDGCEVTVGFGTGVTYQLVSKYLPSWFTYNHCVLKQNPEGQWTIMDNKSLTGVWLNRARLEPLRVYSIHQGDYIQLGALRCRLENAEYEYEVTEEDWETIYPCLSPKNDQMIEKN
notes: as for B9
Q: Does B16 bind [4]?
A: Result: binds

B17: Trx-binding clone group H (RNF8-FHA domain-modified protein) (designed binder)
chain: GEPGFFVTGDRAGGRSWCLRRVGMSAGWLLLEDGCEVTVGSDWGVTYQLVSKRWLGNVVFNHCVLKQNPEGQWTIMDNKAGHGVWLNRARLEPLRVYSIHQGDYIQLGEPSSLHENAEYEYEVTEEDWETIYPCLSPKNDQMIEKN
notes: as for B4
Q: For B17, which “ELISA (S/N)” value [1] is on record?
A: The value was 5.7 S/N.

B18: Erk2-binding clone group N (RNF8-FHA domain-modified protein) (designed binder)
chain: GEPGFFVTGDRAGGRSWCLRRVGMSAGWLLLEDGCEVTVGWGGGVTYQLVSKGYLWQRRTNHCVLKQNPEGQWTIMDNKVLGGVWLNRARLEPLRVYSIHQGDYIQLGLRSLLLENAEYEYEVTEEDWETIYPCLSPKNDQMIEKN
notes: Purified protein from E. coli; also called Erk2 clone N; clone N; not shown: N-terminal fusion partner from vector pET-MalStrep (MBP/Strep) and FLAG tag
Q: B18 was tested. Which “ELISA (S/N)” value [3] did it give?
A: The value was 12.6 S/N.

Q: What about the Kd [5] of the same binder?
A: Its Kd is 30 nM.

B19: Trx clone A expressed from pcDNA3.1-RNF8-V5/His in HEK293T cells (designed binder)
chain: GEPGFFVTGDRAGGRSWCLRRVGMSAGWLLLEDGCEVTVGFVPGVTYQLVSKVLFAEKNANHCVLKQNPEGQWTIMDNKVWNGVWLNRARLEPLRVYSIHQGDYIQLGQVSPLGENAEYEYEVTEEDWETIYPCLSPKNDQMIEKN
notes: Control clone in the pull-down of endogenous Erk1/2; not shown: C-terminal V5 and His tags of vector pcDNA3.1-V5/His
Q: What does the source list for B19?
A: binding result [6]: no binding; binding result [7]: no binding
